Results on one molecule are retold here after patent US7700353B2, “Compositions and methods for inducing apoptosis in tumor cells” (E-P Therapeutics, Inc., priority 1998, dated 2010).

For assay [1], the system named is MCF-7, HT-29, HepG2, ZR-75-1, SK-N-F1, or HC cells. In words: Morphological change assay in tumor cell lines. It is filed as cell-based, human and fish. The method, then:
(§1) Approximately 1-2×10^5 of MCF-7, ZR-75-1, HT-29, HepG2, 293GP, HC or SK-N-F1 cells re-suspended in their respective basal medium without fetal bovine serum (FBS) were plated in a 6-well culture chamber. Prior to plating cells, an acid-washed coverslip was placed in each well of the culture chamber. Recombinant rainbow trout E-peptides (rtEa-2, rtEa-3 or rtEa-4 peptide at 0.8 µM), human IGF-I (hIGF-1, 2.5 nM) or the same amount of control protein was added to each well and the cell cultures were incubated at 37° C. under a humidified atmosphere of 5% CO2. The control protein was prepared from E. coli cells carrying the expression plasmid but without the E-peptide gene according to the purification method described by Tian et al. (1999). Coverslips were removed from the culture chamber 24 hours after initiation of the treatment and observed under an Olympic inverted microscope equipped with differential interference phase contrast objective lenses or phase contrast objective lens (final magnification, 200×). The morphological change assay was performed at least 10 times with different batches of Ea-4 peptide preparations.
Oncogenic transformed or established cancer cells derived from human and fish (MCF-7, HT-29, HepG2, ZR-75-1, SK-N-F1, or HC cells) were plated in their respective serum-free basal medium supplemented with 0.8 µM of the trout recombinant Ea-4-peptide, with the control protein, or with 2.5 nM of the recombinant hlGF-I and the cultures were examined 24 hours later under an inverted microscope equipped with differential interference phase contrast objectives. […] The rtEa-4 peptide treated cells developed several pseudopodia-like structures to establish contact with neighboring cells similar to that seen in untransformed or non-malignant cells.
Because each of these tumor cell lines obtained from ATCC contains a mixed population of tumorous and nontumorous cells, only between 25-40% of the cells from each cell line responded to induction by rtEa-4-peptide. […]

In the next assay the test system is 293GP or ZR-75-1 cells. Description: Morphological change by Ea-2, Ea-3, Ea-4 peptides. It is filed as cell-based, human. As to conditions: 0.8 μM, 24 hours. On the procedure:
as §1
Cells were again cultured as described above. Twenty-four hours after treatment with 0.8 µM of E-peptides or the control protein, the cells were observed under an Olympic inverted microscope equipped with differential interference phase contrast objective lenses (200× magnification). […] To confirm this hypothesis, synthetic peptides specific to Ea-1-, Ea-2-, Ea-3- and Ea-4-peptide (Ea-1sp, Ea-2sp, Ea-3sp and Ea-4sp) specific sequence (see FIG. 1) were prepared and tested for their activities to induce morphological change in ZR-75-1 cells. For FIG. 6, cells were cultured in F12/DME medium without FBS as described above. Twenty-four hours after treatment with 0.8 µM of synthetic peptide containing Ea-1 sp, Ea-2sp, Ea-3sp or Ea-4sp specific sequence or the control protein, the cells were observed under an Olympic inverted microscope equipped with differential interference phase contrast objective lenses (200× magnification).

B1: rtEa-4: recombinant Ea-4 peptide of rainbow trout pro-IGF-I, 74 amino acid residues (SEQ ID NO: 2) (protein)
chain: RSVRAQRHTDMPRTPKVSTAVQNVDRGTERRTAQHPDKTKTKKKPLSGHSHPSCKEVHQKNSSRGNTGGRNYRM
modifications: Oncorhynchus mykiss
On to B1, for which the morphological change entry in assay [1] (0.8 μM, 24 hours, serum-free basal medium) was “flattened out and attached tightly to the culture dish”. Besides, the “cells from each cell line responding to induction” value in assay [1] (mixed population cell lines from ATCC) is given as 25-40%. For the same molecule, the “induction of morphological change” value in the assay on 293GP or ZR-75-1 cells is listed as “able to induce morphological change”.
